{"source": "paper PMC11532494", "about": "(Nature Communications, 2024)", "key": {"VsHdaH (1b)": {"tested_on": "VsHdaH (1b)", "type": "biochemical, Vibrio sp."}, "RsPrpH (1b)": {"tested_on": "RsPrpH (1b)", "assay": "Substrate screening assay (acyl-peptide-AMC)", "type": "biochemical, Rhizorhabdus sp."}, "BsAcuC (2c)": {"target": "T1, BsAcuC (2c) (Bacillus subtilis, UniProt P39067)", "T1 construct": "made in house; host or cells: E. coli BL21 (DE3)", "T1 sequence (P39067 1-387)": "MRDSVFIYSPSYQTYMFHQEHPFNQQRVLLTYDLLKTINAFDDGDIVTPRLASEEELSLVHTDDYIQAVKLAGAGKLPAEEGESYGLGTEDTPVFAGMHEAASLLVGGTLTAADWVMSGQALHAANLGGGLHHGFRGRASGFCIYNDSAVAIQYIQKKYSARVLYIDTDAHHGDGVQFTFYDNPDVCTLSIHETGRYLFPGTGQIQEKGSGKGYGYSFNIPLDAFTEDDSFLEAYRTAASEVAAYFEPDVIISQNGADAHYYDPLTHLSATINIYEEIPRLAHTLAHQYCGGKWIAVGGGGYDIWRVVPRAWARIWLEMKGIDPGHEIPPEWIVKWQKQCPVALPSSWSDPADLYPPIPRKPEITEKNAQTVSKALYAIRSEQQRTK", "assay": "Substrate screening assay (acyl-peptide-AMC)", "type": "biochemical", "experimental": "(§1) Experiments with SIRT2 and SIRT5 were supplemented with NAD^+ (500 µM). Thereafter, a solution of trypsin (25 µL, 5.0 mg/mL; final concentration of 2.5 mg/mL) was added, and the development of the assay was allowed to proceed for 90 min at room temperature before fluorescence analysis. […] To this end, a single category is given to all conversions >48% on the heatmap. […] For the H4-derived peptide LGKbio no positive control was available."}, "KpHdaH (1b)": {"target": "KpHdaH (1b) (Klebsiella pneumoniae, UniProt A0A377Z5F6)", "type": "biochemical"}, "Controls [1]": {"tested_on": "Controls", "type": "biochemical"}, "LcApaH (3)": {"target": "LcApaH (3) (Legionella cherrii, UniProt A0A0W0SGS1)", "type": "biochemical"}, "PsApaH (4)": {"target": "PsApaH (4) (Pseudomonas sp. M30-35, UniProt A0A1Y0KY79)", "type": "biochemical", "experimental": "as §1"}, "RwDmhA (1b)": {"target": "RwDmhA (1b) (Rhizorhabdus wittichii, UniProt A0A067XIQ6)", "type": "biochemical"}, "VcHdaH (5b)": {"tested_on": "VcHdaH (5b)", "type": "biochemical, Vibrio cholerae"}, "Controls [2]": {"tested_on": "Controls", "type": "biochemical", "remark": "listed apart in the source"}, "LpApaH (3)": {"target": "LpApaH (3) (Legionella pneumophila, UniProt A0A2S6EWV0)", "type": "biochemical"}, "[3]": {"conditions": "substrate screening, mean of two measurements"}, "[4]": {"conditions": "substrate screening, measurement 1 of two"}, "[5]": {"conditions": "substrate screening, measurement 2 of two"}, "[6]": {"conditions": "two measurements, single values"}}, "note": "Values joined by “and” are separate entries in the source; they are usually repeats but may differ in a detail not shown here. Equal entries are not always repeated. Where two headings read alike, the source gives them in different places. No end group written: not given here. *: point of attachment. AMC = Cc1cc(=O)oc2cc(N*)ccc12"}
{"substance": "QPKKoct (QPKK-{AMC}; not fully specified (residue 4); printed as QPKKoct; also: octanoyl-lysine (which Lys not given here); UniProt P04637 317-320, looked up, fragment)", "values": [{"measurement": "RFU means, VsHdaH (1b)", "setting": "VsHdaH (1b); means of two measurements", "result": 110.5, "unit": "RFU"}, {"measurement": "RFU*2 means, VsHdaH (1b)", "setting": "VsHdaH (1b); means of two measurements", "result": 221, "unit": "RFU*2"}, {"measurement": "[AMC] (nM), VsHdaH (1b), means", "setting": "VsHdaH (1b); [3]", "result": 107.91, "unit": "nM"}, {"measurement": "[AMC] (nM), VsHdaH (1b)", "setting": "VsHdaH (1b); [4]", "result": 121.09, "unit": "nM"}, {"measurement": "[AMC] (nM), VsHdaH (1b)", "setting": "VsHdaH (1b); [5]", "result": 94.73, "unit": "nM"}, {"measurement": "RFU*2, VsHdaH (1b)", "setting": "VsHdaH (1b); [6]", "result": "248 RFU*2 and 194 RFU*2"}, {"measurement": "RFU, VsHdaH (1b)", "setting": "VsHdaH (1b); [6]", "result": "124 RFU and 97 RFU"}, {"measurement": "RFU means, RsPrpH (1b)", "setting": "RsPrpH (1b); means of two measurements", "result": 38, "unit": "RFU"}, {"measurement": "RFU*2 means, RsPrpH (1b)", "setting": "RsPrpH (1b); means of two measurements", "result": 76, "unit": "RFU*2"}, {"measurement": "[AMC] (nM), RsPrpH (1b), means", "setting": "RsPrpH (1b); [3]", "result": 37.11, "unit": "nM"}, {"measurement": "[AMC] (nM), RsPrpH (1b)", "setting": "RsPrpH (1b); [4]", "result": 3.91, "unit": "nM"}, {"measurement": "[AMC] (nM), RsPrpH (1b)", "setting": "RsPrpH (1b); [5]", "result": 70.31, "unit": "nM"}, {"measurement": "RFU means, BsAcuC (2c)", "setting": "BsAcuC (2c); means of two measurements", "result": 2011.5, "unit": "RFU"}, {"measurement": "RFU*2 means, BsAcuC (2c)", "setting": "BsAcuC (2c); means of two measurements", "result": 4023, "unit": "RFU*2"}, {"measurement": "[AMC] (nM), BsAcuC (2c), means", "setting": "BsAcuC (2c); [3]", "result": 1964.36, "unit": "nM"}, {"measurement": "RFU*2, BsAcuC (2c)", "setting": "BsAcuC (2c); [6]", "result": "4802 RFU*2 and 3244 RFU*2"}, {"measurement": "RFU means, KpHdaH (1b)", "setting": "KpHdaH (1b); means of two measurements", "result": -28, "unit": "RFU"}, {"measurement": "RFU*2 means, KpHdaH (1b)", "setting": "KpHdaH (1b); means of two measurements", "result": -56, "unit": "RFU*2"}, {"measurement": "[AMC] (nM), KpHdaH (1b), means", "setting": "KpHdaH (1b); [3]", "result": -27.34, "unit": "nM"}, {"measurement": "[AMC] (nM), KpHdaH (1b)", "setting": "KpHdaH (1b); [4]", "result": -12.70, "unit": "nM"}, {"measurement": "[AMC] (nM), KpHdaH (1b)", "setting": "KpHdaH (1b); [5]", "result": -41.99, "unit": "nM"}, {"measurement": "[AMC] (nM), controls, means", "setting": "Controls [1]", "result": 8145.02, "unit": "nM"}, {"measurement": "RFU means, LcApaH (3)", "setting": "LcApaH (3)", "result": 186, "unit": "RFU"}, {"measurement": "RFU*2 means, LcApaH (3)", "setting": "LcApaH (3)", "result": 372, "unit": "RFU*2"}, {"measurement": "[AMC] (nM), LcApaH (3), means", "setting": "LcApaH (3)", "result": 181.64, "unit": "nM"}, {"measurement": "RFU means, PsApaH (4)", "setting": "PsApaH (4); means of two measurements", "result": 80.5, "unit": "RFU"}, {"measurement": "RFU*2 means, PsApaH (4)", "setting": "PsApaH (4); means of two measurements", "result": 161, "unit": "RFU*2"}, {"measurement": "[AMC] (nM), PsApaH (4), means", "setting": "PsApaH (4); [3]", "result": 78.61, "unit": "nM"}, {"measurement": "[AMC] (nM), PsApaH (4)", "setting": "PsApaH (4); [4]", "result": 85.94, "unit": "nM"}, {"measurement": "[AMC] (nM), PsApaH (4)", "setting": "PsApaH (4); [5]", "result": 71.29, "unit": "nM"}, {"measurement": "RFU*2, PsApaH (4)", "setting": "PsApaH (4); [6]", "result": "146 RFU*2 and 176 RFU*2"}, {"measurement": "RFU, PsApaH (4)", "setting": "PsApaH (4); [6]", "result": "73 RFU and 88 RFU"}, {"measurement": "RFU means, RwDmhA (1b)", "setting": "RwDmhA (1b); means of two measurements", "result": 64, "unit": "RFU"}, {"measurement": "RFU*2 means, RwDmhA (1b)", "setting": "RwDmhA (1b); means of two measurements", "result": 128, "unit": "RFU*2"}, {"measurement": "[AMC] (nM), RwDmhA (1b), means", "setting": "RwDmhA (1b); [3]", "result": 62.50, "unit": "nM"}, {"measurement": "[AMC] (nM), RwDmhA (1b)", "setting": "RwDmhA (1b); [4]", "result": 51.76, "unit": "nM"}, {"measurement": "[AMC] (nM), RwDmhA (1b)", "setting": "RwDmhA (1b); [5]", "result": 73.24, "unit": "nM"}, {"measurement": "RFU*2, RwDmhA (1b)", "setting": "RwDmhA (1b); [6]", "result": "106 RFU*2 and 150 RFU*2"}, {"measurement": "RFU, RwDmhA (1b)", "setting": "RwDmhA (1b); [6]", "result": "53 RFU and 75 RFU"}, {"measurement": "RFU means, VcHdaH (5b)", "setting": "VcHdaH (5b); means of two measurements", "result": 71, "unit": "RFU"}, {"measurement": "RFU*2 means, VcHdaH (5b)", "setting": "VcHdaH (5b); means of two measurements", "result": 142, "unit": "RFU*2"}, {"measurement": "[AMC] (nM), VcHdaH (5b), means", "setting": "VcHdaH (5b); [3]", "result": 69.34, "unit": "nM"}, {"measurement": "RFU*2, VcHdaH (5b)", "setting": "VcHdaH (5b); [6]", "result": "138 RFU*2 and 146 RFU*2"}, {"measurement": "RFU, VcHdaH (5b)", "setting": "VcHdaH (5b); [6]", "result": "69 RFU and 73 RFU"}, {"measurement": "RFU means, controls", "setting": "Controls [2]", "result": 8340.5, "unit": "RFU"}, {"measurement": "RFU*2, controls", "setting": "Controls [2]", "result": "13158 RFU*2 and 20204 RFU*2"}, {"measurement": "RFU*2 means, controls", "setting": "Controls [2]", "result": 16681, "unit": "RFU*2"}, {"measurement": "RFU, controls", "setting": "Controls [2]", "result": "6579 RFU and 10102 RFU"}, {"measurement": "RFU means, LpApaH (3)", "setting": "LpApaH (3)", "result": 63, "unit": "RFU"}, {"measurement": "RFU*2, LpApaH (3)", "setting": "LpApaH (3)", "result": "110 RFU*2 and 142 RFU*2"}, {"measurement": "RFU*2 means, LpApaH (3)", "setting": "LpApaH (3)", "result": 126, "unit": "RFU*2"}, {"measurement": "RFU, LpApaH (3)", "setting": "LpApaH (3)", "result": "55 RFU and 71 RFU"}, {"measurement": "[AMC] (nM), LpApaH (3)", "setting": "LpApaH (3)", "result": "53.71 nM and 69.34 nM"}, {"measurement": "[AMC] (nM), LpApaH (3), means", "setting": "LpApaH (3)", "result": 61.52, "unit": "nM"}]}
